Like-named read-outs stand apart in the source and are kept apart here.

Common to all, as to assay: SPR
Background: SPR reads the build-up and loss of mass on a sensor chip optically.

The target of assay [1] is T1, TGF-β type II receptor extracellular domain (UniProt P37173 23-166).
Assay [2] addresses T1, TGF-β type II receptor extracellular …. The source holds these as a separate data set.
Assay [3] shares this target. This is another data set of the same source.

T1 sequence (P37173 23-166): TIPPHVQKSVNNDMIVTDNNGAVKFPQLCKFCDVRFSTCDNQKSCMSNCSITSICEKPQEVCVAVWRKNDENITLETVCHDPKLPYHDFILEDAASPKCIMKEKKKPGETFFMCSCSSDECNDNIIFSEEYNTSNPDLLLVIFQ

B1: Transforming growth factor β2 (TGF-β2), recombinant human (ligand, UniProt P61812 303-414, looked up)
chain: ALDAAYCFRNVQDNCCLRPLYIDFKRDLGWKWIHEPKGYNANFCAGACPYLWSSDTQHSRVLSLYNTINPEASASPCCVSQDLEPLTILYYIGKTPKIEQLSNMIVKSCKCS
modifications: biotinylated for SPR (EZ-Link Amine-PEG3-biotin with EDC/Sulfo-NHS; for the experiments of Table S1 sulfo-NHS-LC-LC-Biotin)
A word on the Kd: it is the equilibrium constant for the complex coming apart. Read a low Kd as tighter binding. As to B1, the Kd amounted to 2.9 ± 1.1 µM in assay [1], 9.4 ± 2.2 µM in assay [2] and 4.6 ± 0.7 µM in assay [3].

These data come from PMC5551644 (Biochemistry, 2016).
